Km and Vmax data for two proteins are collected here from paper PMC9254107, “The Toxoplasma glucan phosphatase TgLaforin utilizes a distinct functional mechanism that can be exploited by therapeutic inhibitors” (The Journal of Biological Chemistry, 2022).

Substrate in this series: O=[N+]([O-])c1ccc(OP(=O)(O)O)cc1
Kind of series: purified protein, by the assay type.

B1: TgLaforin (Toxoplasma gondii ME49) (protein)
chain: MRVRFSVTAFVPPNAQLGVVGSAPFLGEWKLEHCVPLMPYSAPHPQGLEPSLWFRDIDLDPASCPNDTNDVHSTAAVSASCSADRRRCDLSRQSPHCFPSARSASPYMVEVSRGDCPFAVELMSTSQHVLSEFSKHNSPVYSAGEQRFRRSLPSSASFSSCTSSGSAVAATKCVWDAAAYRVATRAPEVQAVLESHPLRHCAFEYKFVLWYPPNGEIAVPYVPTTAGEEVPITYAGDSEVLNEESEGGARRRSWRKWLFPPSPSRCPAPPGPSESIVWEGFGPDSNRKFCFDPFDVVVDVNELGDLECLYICRIAHFRDPRAGGVGEYDLTTRFYNSVKSECRMHYSTIFPRFFVGSCPRQLKHIRHLKEELKVTCVVNLQTEQDLCNNYPDPIASSRSAEAVSQLYDGSGLRYVWLPTADMCDSARKIAVANAAFLLLGLFQSGHSVYMHCNAGVGRSVAAACAFLCFAVGLDLRKVNFLICARRPVAYWDEKAMKYGIGDYQAKFGHCRVVGEEAEERQHA
One may read the Km as the concentration of substrate that gives half-maximal velocity. Turning to B1, where the note is “other: pH 5.5, 37 °C”, the Km is 1000 ± 50 µM and the Vmax was determined as 1.4 ± 0.02 nmol PO4/min.

B2: VHR (Vaccinia H1-related phosphatase) (Homo sapiens) (protein)
chain: MSGSFELSVQDLNDLLSDGSGCYSLPSQPCNEVTPRIYVGNASVAQDIPKLQKLGITHVLNAAEGRSFMHVNTNANFYKDSGITYLGIKANDTQEFNLSAYFERAADFIDQALAQKNGRVLVHCREGYSRSPTLVIAYLMMRQKMDVKSALSIVRQNREIGPNDGFLAQLCQLNDRLAKEGKLKP
Turning to B2, the Km (pH 5.5, 37.0 °C) was found to be 2500 ± 100 µM.
